# Data from PMC9490035, “Unexpected structures formed by the kinase RET C634R mutant extracellular domain suggest potential oncogenic mechanisms in MEN2A” (The Journal of Biological Chemistry, 2022).
# What was measured:
# [1] = molecular target: Fc-GDF15/GFRAL complex (formed beforehand) (human) (UniProt Q99988); assay: BLI; Fc-GDF15 (15 uM) immobilised on anti-hIgG Fc capture biosensors, saturated with GFRAL (3 uM), then RET^C634R 0.3-42 uM; saturation signals fitted to a sigmoidal model
# [2] = molecular target: RET^C634R extracellular domain dimer (human RET residues 1-635 with C634R, C86R and C216S) (human) (UniProt P07949); assay: SEC-MALS; Superdex 200 10/300 GL, 0.25 ml/min, RT, 20 mM Hepes pH 7.5, 100 mM NaCl, 1 mM CaCl2
# [3] = molecular target: GDF15/GFRAL complex (Homo sapiens) (UniProt Q99988); details: cited from earlier work
# [4] = molecular target: T1, WT RET extracellular domain (human RET residues 1-635) (human, UniProt P07949 29-635, glycosylated (near-native glycans)); assay: native gel or EMSA; Blue Native PAGE; Fc-GDF15 dimer 2 uM + GFRAL 4 uM for 15 min (with or without thrombin), then RET^WT monomer 4 uM or RET^C634R dimer 2 uM; RET + copurified GDNF/GFRα1 at 1:1; 30 min at RT; run at 100 V, 4 °C; also after 5 min heating at 50-85 °C for melting curves; details: both partners purified
# T1 construct: signal peptide in the construct; human RET extracellular domain, residues 1-635; TEV site before the His8-Flag tags; also called RET^WT; RET^WT ECD; source: HEK293T, transient expression, secreted; purified (Ni-NTA, anti-Flag)
# T1 sequence (P07949 29-635): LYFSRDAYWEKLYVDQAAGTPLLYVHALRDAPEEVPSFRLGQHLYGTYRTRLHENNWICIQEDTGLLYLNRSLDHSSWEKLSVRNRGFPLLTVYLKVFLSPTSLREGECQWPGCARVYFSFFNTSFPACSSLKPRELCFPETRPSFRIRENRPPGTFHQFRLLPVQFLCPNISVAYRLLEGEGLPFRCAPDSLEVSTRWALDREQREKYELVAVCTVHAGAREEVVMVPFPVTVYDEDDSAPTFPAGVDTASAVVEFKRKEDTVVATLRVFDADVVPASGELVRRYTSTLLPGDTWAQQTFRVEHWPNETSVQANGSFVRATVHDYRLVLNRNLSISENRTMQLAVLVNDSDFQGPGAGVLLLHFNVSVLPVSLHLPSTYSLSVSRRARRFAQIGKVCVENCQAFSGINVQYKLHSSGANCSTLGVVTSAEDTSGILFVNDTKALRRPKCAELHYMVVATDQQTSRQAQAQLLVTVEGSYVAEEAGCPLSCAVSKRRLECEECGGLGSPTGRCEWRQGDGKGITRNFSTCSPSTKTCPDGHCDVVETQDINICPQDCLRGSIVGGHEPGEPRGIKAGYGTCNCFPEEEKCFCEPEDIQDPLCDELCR
# RET ECD, sequence (P07949 29-635): as above
molecule,measurement,setting,value
"RET^C634R extracellular domain dimer (human RET residues 1-635 with C634R, C86R and C216S) (from UniProt P07949 29-635) (domain or fragment)",Kd,[1],8.5 µM
same,stoichiometry N,[2],2
RET ECD (from UniProt P07949),Kd,[3],3.2 µM
"GDF15/GFRAL complex with the Fc removed by thrombin (formed beforehand) (complex, human, human GDF15, residues 195-308; human GFRAL, residues 19-351; as m4; not shown: modified Fc, N-terminal, cleaved; copies: 2 + 2) chain 1: ARARNGDHCPLGPGRCCRLHTVRASLEDLGWADWVLSPREVQVTMCIGACPSQFRAANMHAQIKTSLHRLKPDTVPAPCCVPASYNPMVLIQKTDTGVSLQTYDDLLAKDCHCI chain 2: SQTNNCTYLREQCLRDANGCKHAWRVMEDACNDSDPGDPCKMRNSSYCNLSIQYLVESNFQFKECLCTDDFYCTVNKLLGKKCINKSDNVKEDKFKWNLTTRSHHGFKGMWSCLEVAEACVGDVVCNAQLASYLKACSANGNPCDLKQCQAAIRFFYQNIPFNIAQMLAFCDCAQSDIPCQQSKEALHSKTCAVNMVPPPTCLSVIRSCQNDELCRRHYRTFQSKCWQRVTRKCHEDENCISTLSKQDLTCSGSDDCKAAYIDILGTVLQVQCTCRTITQSEESLCKIFQHMLHRKSCFNYPTLSNVKGMALYTRKHANKITLTGFHSPFNGE",binding result,[4],binds
